First the molecules themselves.
B1: Endo-Si T190Q/D241Q (protein)
chain: MNKRLLVKRTFGCVCAAAILGVAPLSHPTIVEAREELKMPNGLEQSIADVEAKIDALTYLSKNSKDEFKHSMYEIPSNREHKPVSPKQALQNAKKADAQAERLAKMTIPKKEELKALEGPLYGGYFRTWQDKTSDPTETNKVNSFGELPKEVDLAFVFHDYTKDYSLFWEELATKQVPKLNKQGTRVIRQIPWRFLSGADHSDISADKEKFPNTEAGNKALAKAIVDEYVYKYNLDGLDIQIERDSVPKVNDKEDPEALARTVEVFKEIGKLIGANGADKSRLLIMDTTYTAEENPLIKETAQYLNLLLVQVYGFSGENGNYLHHKNILDETSSMEGRWQGYSKYIRPEQYMVGFSFYEEKDFNNRWKDINEEDPSDPHIGEKIQGTRAERYAKWQPKTGGLKGGLFSYAIDRDGVAQPKQKTEHPELDKIVKSEYKVSKALKKLMMTDDQYQPIDQSDFPDKALRESIIKQVGTRRGDLERFKGTLRLDNPEIKDLTGLNKLKRVAKLELINLPKITKIDKDDLPQNLKPLTDNQKSNLEIKGTYDDSKLYKDIPAFDLVISGLSGLESLDISGHQRDTLSGIDASTLPSLKAINISDNHFDLAQGTENRHILDTILATLAKNGASTASFDKQKPKGLYPESYSTAPLHLQVGQGKINVIDDLIFGTRTNQNTLINTENDFEAYKEQTIQGKPFIAPDYLYDNFKVSYKEYSASIVDSTLAETTDKTIDTAKAETYQVTVSNKDGKTVHSVKVIVGDEKPMMVNLAQDAKIIGTDNMTQSAKVFDGQKDQFLLSWNKDSSVIFELKTPGTAKHWRFFDDGKNDSVTLSVFKGDASNFETEKDKAENWVEITKDSRKNDDKVFSSPLEVDNAKYLKVTIKKEAKYIYFNELQILGYPGVVAKKTADDLRPTEADKSDDKSDKNDTEAK
modifications: Amino acid sequence of Endo-Si T190Q/D241Q
B2: Endo-Si T190Q/D241M (protein)
chain: B1 chain with Q241M
modifications: Amino acid sequence of Endo-Si T190Q/D241M
B3: Endo-Si D241Q (protein)
chain: B1 chain with Q190T
modifications: Amino acid sequence of Endo-Si D241Q

Transglycosylation rate data for three molecules are collected here from patent US20240336907A1, “NOVEL ENDO-ß-N-ACETYLGLUCOSAMINIDASE” (priority 2020, published 2024).

Positions count from the first letter of the chain named. Names may count otherwise.

The subject of one assay is (Fucα1,6)GlcNAc-mAb2. As to the kind of experiment: Transglycosylation activity with SGP as donor, in combination with Endo-M N175Q. Particulars: 2 h; donor SGP (50 eq.), Endo-M N175Q 2.5 mU, Endo-Si enzyme 10 μg, 23° C., pH 7.5. Type of assay: biochemical. How it is done: Transglycosylation activity was evaluated as follows. A 50 mM (sodium) phosphate buffer (pH 7.5) solution (17 μL) containing (Fucα1,6)GlcNAc-mAb2 (0.5 mg), SGP (0.485 mg (50 eq.)), Endo-M N175Q (manufactured by Tokyo Kasei Kogyo Co., Ltd.) (2.5 mU) and each of various Endo-Si mutant enzymes (10 μg), was prepared and incubated at 23° C. A sample was taken from each of the reaction solutions at 2, 4, 6, 24, and 48 hours after initiation of the reaction and analyzed for protein by a fully automated electrophoresis system as mentioned above. In the chromatogram obtained, an unreacted product and a transglycosylated molecule, mAb2-(SG)2 are confirmed as discrete peaks. The transglycosylation rates were obtained based on the peak area ratio between the unreacted product and the transglycosylated molecule in accordance with the following expression.
Similarly, transglycosylation rates of individual Endo-Si mutant enzymes at each time period of a reaction were calculated (Table 6).
B1: the Transglycosylation rate is 4.9%.
Regarding B2, the Transglycosylation rate is recorded as 3.1%.
Still for that read-out and setting: the result for B3 reads 15.9%.

The assay is the same for the next values; noted with them: 4 h; donor SGP (50 eq.), Endo-M N175Q 2.5 mU, Endo-Si enzyme 10 μg, 23° C., pH 7.5.
Take B1: the Transglycosylation rate came to 10.6%.
Turning to B2, the Transglycosylation rate was determined as 6.4%.
Same read-out and setting: as for B3, the figure is 35.6%.

Staying with this assay, now noted: 6 h; donor SGP (50 eq.), Endo-M N175Q 2.5 mU, Endo-Si enzyme 10 μg, 23° C., pH 7.5.
With B1, the Transglycosylation rate was 21.4%.
Turning to B2, the Transglycosylation rate amounted to 13.8%.
Still for that read-out and setting: as for B3, the figure is 52.3%.

The assay is the same for the next values; noted with them: 24 h; donor SGP (50 eq.), Endo-M N175Q 2.5 mU, Endo-Si enzyme 10 μg, 23° C., pH 7.5.
Take B1: the Transglycosylation rate is 71.5%.
Still for that read-out and setting: as for B2, the figure is 50.7%; as for B3, 98.1%.

The assay is the same for the next values; noted with them: 48 h; donor SGP (50 eq.), Endo-M N175Q 2.5 mU, Endo-Si enzyme 10 μg, 23° C., pH 7.5.
B1: the Transglycosylation rate stood at 92.5%.
Same read-out and setting: the result for B2 reads 77.5%; that for B3, 98.5%.

In a further assay the test system is (Fucα1,6)GlcNAc-mAb2. As to the kind of experiment: Transglycosylation activity with sugar chain oxazoline [N3-PEG(3)]-MSG1(9)-Ox as donor. Type of assay: biochemical. Particulars: 1 h; donor [N3-PEG(3)]-MSG1(9)-Ox (8 eq.), enzyme 1.25 μg, 28° C., pH 7.5. How it is done: Transglycosylation activity was evaluated as follows. […] A sample was taken from each of the reaction solutions at 1, 2, 4, 6, and 24 hours after initiation of the reaction and analyzed for protein by a fully automated electrophoresis system as mentioned above. In the chromatogram obtained, an unreacted product and transglycosylated molecule, mAb2-(MSG1-N3)2 were confirmed as discrete peaks. The transglycosylation rate was calculated based on the peak-area ratio between the unreacted product and the transglycosylated molecule in accordance with the following expression.
Transglycosylation rate (%)=[[peak area of mAb2-(MSG1-N3)2-derived H chain]/{[peak area of (Fucα1,6)GlcNAc-mAb2-derived H chain]+[peak area of mAb2-(MSG1-N3)2-derived H chain]}]×100
Similarly, the transglycosylation rates of individual Endo-Si mutant enzymes at each time period for a reaction were calculated (Table 5).
For B1, the Transglycosylation rate amounted to 26.6%.
In turn, B2 yielded a Transglycosylation rate of 43.5%.
Molecule B3 returned a Transglycosylation rate of 75.2%.

Still in this assay, the particulars now being: 2 h; donor [N3-PEG(3)]-MSG1(9)-Ox (8 eq.), enzyme 1.25 μg, 28° C., pH 7.5.
Molecule B1 came in with a Transglycosylation rate of 48.4%.
The molecule B2 showed a Transglycosylation rate of 64.1%.
B3 showed a Transglycosylation rate of 97.0%.

Still in this assay, the particulars now being: 4 h; donor [N3-PEG(3)]-MSG1(9)-Ox (8 eq.), enzyme 1.25 μg, 28° C., pH 7.5.
B1 registered a Transglycosylation rate of 83.3%.
With B2, the Transglycosylation rate is recorded as 92.7%.
Same read-out and setting: the result for B3 reads 99.1%.

Staying with this assay, now noted: 6 h; donor [N3-PEG(3)]-MSG1(9)-Ox (8 eq.), enzyme 1.25 μg, 28° C., pH 7.5.
In turn, B1 had a Transglycosylation rate of 96.1%.
B2 displayed a Transglycosylation rate of 98.7%.
In turn, B3 had a Transglycosylation rate of 99.6%.

Still in this assay, the particulars now being: 24 h; donor [N3-PEG(3)]-MSG1(9)-Ox (8 eq.), enzyme 1.25 μg, 28° C., pH 7.5.
In the case of B1, the Transglycosylation rate was found to be 99.6%.
As for B2, the Transglycosylation rate is 99.6%.
In the case of B3, the Transglycosylation rate is listed as 98.8%.
